This note sets out measurements from the RNAGym collection of RNA variant scans (doi:10.1021/acssynbio.7b00057).

B1: Pistol ribozyme (parent)
chain: GGGUCGUUGUUCCAUAAUCGCGUGGAUAUGGCACGCAAGUUUCUACCGGGCACCGUAAAUGUCCGACUGGAGCCGUUCGGGCGGCUAUAAACAGACCUCAGGCCCGAAGCGUGGCGGCACCUGCCGCCGGUGGUAAAAAAGAUCGGAAGAGCACACGUCU

The variants in the data set derive from B1. In words: aptazyme ON/OFF ratio, guanine; higher = stronger switching; co-transcriptional cleavage with and without guanine.
Take U7A U8A U10C C12U C13A: the “aptazyme ON/OFF ratio” value worked out at 1.05. U7A U8A U10A U11C C13A: the “aptazyme ON/OFF ratio” value is 1.04.

For the variant U7A U8A U10A U11C C13G, the “aptazyme ON/OFF ratio” value stood at 1.06. The same measure for U7A U8A U10A U11C C13U: 0.989. Under U7A U8A G9U U10C U11A C13G stands 1.17; under U7A U8A G9U U10C U11A C13U, 1.08; under U7A U8A G9U U10C U11A C13A, 1.22. The same measure for U7A U8A U10C U11G C12G: 1.34; for U7A U8A U10C U11G C12U: 1.45; for U7A U8A U10C U11G C12A: 1.09.

As to U7A U8A G9U U10G C12G C13U, the “aptazyme ON/OFF ratio” value turned out to be 1.23. U7A U8A G9U U10G C12G C13G: the “aptazyme ON/OFF ratio” value stood at 1.08. Under U7A U8A G9U U10G C12G C13A stands 1.21; under U7A U8A U10C U11C C12G C13A, 1.1; under U7A U8A U10C U11C C12G C13G, 1.21. Under U7A U8A U10C U11C C12G C13U stands 1.08. Under U7A U8A G9U U10C U11C C12G C13U stands 1.04; under U7A U8A G9U U10C U11C C12G C13A, 1.07; under U7A U8A G9U U10C U11C C12G C13G, 1.07. For U7A U8A G9U U10C C12A, the “aptazyme ON/OFF ratio” value is 1.17. The same measure for U7A U8A G9U U10C C12G: 1.43; for U7A U8A G9U U10C C12U: 1.24. Under U7A U8A G9U U10C U11A C12A C13A stands 1.2; under U7A U8A G9U U10C U11A C12A C13U, 1.23. The same measure for U7A U8A G9U U10C U11A C12A C13G: 1.14; for U7A U8A G9U U10G U11C C12G C13G: 1.14; for U7A U8A G9U U10G U11C C12G C13A: 1.09. For U7A U8A G9U U10G U11C C12G C13U, the “aptazyme ON/OFF ratio” value was 1.24. Under U7A U8A G9U U10G U11G C12U stands 1.37; under U7A U8A G9U U10G U11G C12A, 1.13; under U7A U8A G9U U10G U11G C12G, 1.41.

Turning to U7A U8A U10C U11C C12A, the “aptazyme ON/OFF ratio” value amounted to 1.17.

For U7A U8A U10C U11C C12U, the “aptazyme ON/OFF ratio” value worked out at 1.07. As to U7A U8A U10C U11C C12G, the “aptazyme ON/OFF ratio” value amounted to 1.2.

Take U7A U8A U10A U11C C12U: the “aptazyme ON/OFF ratio” value was 1.03.

U7A U8A U10A U11C C12G: the “aptazyme ON/OFF ratio” value came to 1.1. Under U7A U8A U10A U11C C12A stands 1.04; under U7A U8A U10C U11C C13G, 1.07.

In the case of U7A U8A U10C U11C C13A, the “aptazyme ON/OFF ratio” value was determined as 1.01. Under U7A U8A U10C U11C C13U stands 1.02; under U7A U8A U10A C12G C13G, 1.17. Consider U7A U8A U10A C12G C13A, for which the “aptazyme ON/OFF ratio” value was found to be 1.14. The same measure for U7A U8A U10A C12G C13U: 1.23; for U7A U8A G9U U11G C12U: 1.31; for U7A U8A G9U U11G C12A: 1.1. The same measure for U7A U8A G9U U11G C12G: 1.19; for U7A U8A G9U U11G C12U C13U: 1.55; for U7A U8A G9U U11G C12U C13A: 1.28. Under U7A U8A G9U U11G C12U C13G stands 1.17; under U7A U8A G9U U10A U11G C12A C13A, 1.07; under U7A U8A G9U U10A U11G C12A C13U, 1.18. As to U7A U8A G9U U10A U11G C12A C13G, the “aptazyme ON/OFF ratio” value stood at 1.12. Turning to U7A U8A G9U U10A U11C C13U, the “aptazyme ON/OFF ratio” value amounted to 1.01. Under U7A U8A G9U U10A U11C C13A stands 1.08. Regarding U7A U8A G9U U10A U11C C13G, the “aptazyme ON/OFF ratio” value is 1.1. As for U7A U8A U10A U11G C12A C13U, the “aptazyme ON/OFF ratio” value was found to be 1.18. Under U7A U8A U10A U11G C12A C13G stands 1.07; under U7A U8A U10A U11G C12A C13A, 1.19; under U7A U8A G9U U10C C12A C13A, 1.11. As to U7A U8A G9U U10C C12A C13G, the “aptazyme ON/OFF ratio” value turned out to be 1.15.

Consider U7A U8A G9U U10C C12A C13U, for which the “aptazyme ON/OFF ratio” value was 1.16. Under U7A U8A U10C U11C C12A C13G stands 1.09. Under U7A U8A U10C U11C C12A C13A stands 1.06; under U7A U8A U10C U11C C12A C13U, 1.12. Under U7A U8A G9U U10G C12A C13G stands 1.09. For the variant U7A U8A G9U U10G C12A C13U, the “aptazyme ON/OFF ratio” value came to 1.19.

With U7A U8A G9U U10G C12A C13A, the “aptazyme ON/OFF ratio” value turned out to be 1.38. The same measure for U7A U8A G9U U10C U11A C12U C13U: 1.22; for U7A U8A G9U U10C U11A C12U C13A: 1.14. Under U7A U8A G9U U10C U11A C12U C13G stands 1.18; under U7A U8A G9U U11C C13G, 1.05; under U7A U8A G9U U11C C13A, 1.11. The same measure for U7A U8A G9U U11C C13U: 1.04; for U7A U8A G9U U10A U11C C12G C13U: 1.18. U7A U8A G9U U10A U11C C12G C13G: the “aptazyme ON/OFF ratio” value was 1.15. In the case of U7A U8A G9U U10C U11A C12U, the “aptazyme ON/OFF ratio” value came to 1.23. The same measure for U7A U8A G9U U10C U11A C12G: 1.18. U7A U8A G9U U10C U11A C12A: the “aptazyme ON/OFF ratio” value was 1.22. Take U7A U8A G9U U10C U11C C12A C13G: the “aptazyme ON/OFF ratio” value came to 1.12. Consider U7A U8A G9U U10C U11C C12A C13U, for which the “aptazyme ON/OFF ratio” value worked out at 1.05.

Turning to U7A U8A G9U U10C U11C C12A C13A, the “aptazyme ON/OFF ratio” value turned out to be 1.04.

U7A U8A U10A U11G C12G C13U: the “aptazyme ON/OFF ratio” value was 1.35.

Regarding U7A U8A U10A U11G C12G C13A, the “aptazyme ON/OFF ratio” value amounted to 0.986. Under U7A U8A U10A U11G C12G C13G stands 1.6.
